Data reported in patent US20250355001A1 (GTINVENT, published 2025).
Read-outs that look alike come from different tables or passages of the source.

B1: 412B9 (scFv)
scAb: QVQLQESGPSLVKPSQTLSLTCTVSGFSVISDSVAWVRQAPGKVPEWLGASGSSGNKYYNPALKSRLSITRDTSKSQVSLSLSSVTTEDTAVYYCARGIIAGVDVWGRGLLVSVSSEGKSSGASGESKVDDQAVLTQPSSVSGALGQRVSITCSGSSSNVGYGDYVGWYQQVPGSAPKLLIYGAASRASGVPDRFSGSRSGNTATLTISSLQAEDEADYYCASYDSSDGGVFGSGTRLTVLG
B2: 412E6 (scFv)
scAb: QVQLQESGPSLVKPSETLSLTCTVSGFSLTNYGVGWVRQAPGKALEWLGNIYSGGSTYYNPALKSRLSITRDTSKSQVSLSLNSVTLEDTAVYYCGRGGVGSVDVWGPGLLVTVSSEGKSSGASGESKVDDQAVLTQPPSVSGSPGQRVSITCSGGRNNIGRGTFVDWYQQLPGSGLKTVIYGTDRRPPGVPDRFSGSKTGNAATLTITSLQAEDEADYWCATYDYSNDMIILGSGTRLTVLG
B3: 412E10 scAb (scFv, not shown: small tags and cut ends)
scFv: QVQLQESGPSLVKPSQTLSLTCTVSGFSVISDSVAWVRQAPGKVPEWLGASGSSGNKYYNPALKSRLSITRDTSKSQVSLSLSSVTTEDTAVYYCARGIIAGVDVWGRGLLVTVSSEGKSSGASGESKVDDQAVLTQPSSVSGSLGQRVSITCSGSSSNVGYGNYVGWYQQVPGSAPKLLIYGTAIRASGVPDRFSGSRSGDTATLTITSLQAEDEADYYCASYQSNYAFFGSGTRLTVLG
notes: scAb
B4: 3aH6 scAb (scFv, not shown: small tags and cut ends)
scFv: QVQLQESGPSLVKPSQTLSLTCTVSGFSLSSNGVGWVRQAPGKVPEWLGDISSVGKKYANPALKSRLSFTRDTSKSQVSLSLSSVTTEDTAVYYCVKCRDGGVTYGYDIDYWGPGLLVTASSEGKSSGASGESKVDDQAVVTQPSSVSGSLGQSVSITCSGSSGNVGYGDYVSWFQQFHGSAPKLLIYGATNLASGVPARFSGSRSGNTATLTISSLHAEDEADYYCASYDSSSGGVFGSGTRLTVLG
notes: scAb
B5: 3aD3 scAb (scFv, not shown: small tags and cut ends)
scFv: QVQLQESGPSLVKPSQTLSLTCTVSGFSLTSNGVGWVRRAPGKVPEWVGDISSGGKVYGHPALKSRLSITRDTSKSQVSLSVSSVTSEDTAVYYCVRCRDGGVSYGYDSDYWGPGLLVTVSSEGKSSGASGESKVDDQAVVTQPSSVSKSLGQSVSITCSGSSSNVGYGDYVGWFQQVPGSAPKLLIYGVTERASGVPDRFSGSRSGNTATLTISSIQAEDEADYYCASYDDSSGGIFGSGTRLTVLG
notes: scAb
B6: 3bG4 scAb (scFv, not shown: small tags and cut ends)
scFv: QVQLQESGPSLVKPSQTLSLTCTISGFSLISNGVGWVRQAPGKVPEWVGDIASSGKAYSNPALKSRLSITRDTSKSQVSLSLRSVTTEDTAVYYCVRCRDGGVTYGYDIDYWGPGLLVTVSSEGKSSGASGESKVDDQAVLTQPSSVSKSLGQSVSITCSGSTSNVGSGNDVSWFQQVPGSAPKLLFYGATNRASGVPDRFSGSRSGNTATLTITSLQAEDEADYYCGSYDSNSGGIFGSGTRLTVLG
notes: scAb
B7: 3aB7 scAb (scFv, not shown: small tags and cut ends)
scFv: QVQLQESGPSLVKPSQTLSLTCTVSGFSLTSNGVGWVRQAPGKVPEWVGDKSSAGKTYGNPALKSRLSITRDTSKSQVSLSLSSVTTEDTAVYYCVRCRDGGVTYGYDVDYWGPGLLVTVSSEGKSSGASGESKVDDQAVLTQPSSVSKSLGQSVSITCSGSSSNVGYGDVVSWFQQFPGSAPKLLIFGTTTRASGVPDRFSGSRSGNAATLTINSLQAEDEADYYCASFDSDSGGIAGSGTRLTVLG
notes: scAb
B8: 3bF4 scAb (scFv, not shown: small tags and cut ends)
scFv: QVQLQESGPSLVKPSQTLSLTCTVSGFSLSSNGVGWVRQAPGKVPEWLGDISSVGKKYANPALKSRLSFTRDTSKSQVSLSLSSVTTEDTAVYYCVKCRDGGVTYGYDIDYWGPGLLVTVSSEGKSSGASGESKVDDQAVLTQPSSVSKSTGQTVSITCSGSSSNVGLRNYVTWFQQVPGSAPKLLIYGATSRASGIPDRFSGSRSGNTATLIISSLQAEDEADYYCASADTNDGGVFGSGTRLTVLG
notes: scAb
B9: CA12 scAb (scFv, not shown: small tags and cut ends)
scFv: QVQLQGSGPSLVKPSQTLSLTCTVSGFSFDSYYVGWVRQAPGKALEWLGNIYSTGRAFYNPALKSRLSITRDTSKSQVSLSVSSVTIEDTALYYCVRGSYYHGGGNGMVDFFDYWSPGLLVTVSSEGKSSGASGESKVDDQVVRTQPSSVSGSLGQRVSITCSGSSSNVGYGNYVGWFQQVPGSAPKLLIYAATSRASGVPDRFSGSRSGNTATLTIDSLQAEDEADYYCSSYQRGNTGVFGSGTRLTVLG
notes: scAb
B10: E1E8 scAb (scFv, not shown: small tags and cut ends)
scFv: QVQLQESGPSLVKPSQTLSLTCTVSGFSLTDWGVAWVRQAPGKALEWLGTMRSGGTTDDNPALKSRLSITRDTSKSQVSLSLSSVTTEDMAMYYCARGYLSGVHYAWGRGLLVTVSSEGKSSGASGESKVDDQAVLTQPSSVSGSLGQSVSITCSGSSSNVGDGRYVSWFQQVPGSAPKLLIYDTTSRASGVPDRFSGSRSGNTATLIITSLQAEDEADYYCASIDSGNNLLFGSGTRLTVLG
notes: scAb

Experiments:
[1] = molecular target: T1, biotinylated tau peptide 412-441 (N-terminal biotin); assay: ELISA on biotinylated 412-441 peptide
T1 peptide: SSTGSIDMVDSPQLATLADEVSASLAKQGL
Protocol: (§1) A series of binding ELISA was performed using various truncated versions of the tau protein and 13mer peptide libraries spanning the entire hT40 molecule for mapping the epitopes of anti-tau scAbs (Full list of protein antigens used is given in Table 14). In general, ELISA plates were coated with 1 μg/ml hT40 or dGA or dGAE or other truncated versions of the protein and in the case of biotinylated peptides, plates were coated with 5 μg/ml Streptavidin followed by 1 μg/ml biotinylated peptide. The plates were blocked with 2% MPBS and scAb samples added at desired starting concentrations and double diluted across the plate. Binding was detected using anti-Human C Kappa HRP conjugated secondary antibody and the resulting immunoreaction was developed and absorbance values measured as described above.

[2] = molecular target: T2, full length human tau protein 2N4R (hT40) (human, UniProt P10636 1-758); assay: hT40 ELISA
T2 construct: recombinant; also called T441
Protocol: as §1

[3] = molecular target: T2, full length human tau protein 2N4R …; assay: hT40 ELISA; remark: listed apart in the source
Target sequence in this assay (P10636 other isoform, or with tags, fused parts or gaps limits assumed): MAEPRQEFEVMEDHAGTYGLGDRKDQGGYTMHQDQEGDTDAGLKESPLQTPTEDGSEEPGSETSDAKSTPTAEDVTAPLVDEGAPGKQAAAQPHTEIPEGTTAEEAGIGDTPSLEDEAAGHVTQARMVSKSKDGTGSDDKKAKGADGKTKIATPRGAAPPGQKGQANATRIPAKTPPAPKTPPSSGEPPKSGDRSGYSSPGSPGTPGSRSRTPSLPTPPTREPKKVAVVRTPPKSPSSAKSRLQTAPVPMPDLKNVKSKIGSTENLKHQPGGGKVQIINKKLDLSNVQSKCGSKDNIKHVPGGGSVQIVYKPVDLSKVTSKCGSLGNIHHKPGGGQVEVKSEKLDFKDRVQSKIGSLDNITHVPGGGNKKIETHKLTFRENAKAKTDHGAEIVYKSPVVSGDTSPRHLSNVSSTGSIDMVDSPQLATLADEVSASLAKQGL

[4] = molecular target: T2, full length human tau protein 2N4R …; assay: Biacore
Protocol: (§2) The capture antibody was diluted 1/100 in 10 mM Sodium acetate buffer pH 5.0 and passed over the activated chip surface for a period of at least 420 s. Final ligand immobilisation levels over 12,000 RU were deemed to be satisfactory.
(§3) The scAb to be tested was added only to flow cell 2 so that flow cell 1 could act as a control to subtract any interaction with the analyte and the chip surface. […] The multi-cycle protocol was as follows-Three start-up cycles composed of an initial capture, to the desired level, of the scAb to be tested was performed followed by a 30 s injection of glycine buffer pH 2.0 after each cycle to regenerate the chip surface. […] The target was added for a 120 s association period and 420 s dissociation period followed by another regeneration, 30 s injection of glycine buffer pH 2.0 in between each cycle.
(§4) The single cycle kinetics protocol was similar and utilised the same level of scAb capture. […] In single cycle kinetics the regeneration step was performed only after the final analyte concentration was added. Binding responses were analysed in Biacore X100 evaluation software and data fitted to a 1:1 binding model to obtain kinetic and affinity characterisation.
Target sequence in this assay (P10636 other isoform, or with tags, fused parts or gaps limits assumed): as above

[5] = molecular target: T2, full length human tau protein 2N4R …; assay: SPR, summary table
Protocol: as §2, §3, §4
Target sequence in this assay (P10636 other isoform, or with tags, fused parts or gaps limits assumed): as above

[6] = molecular target: T2, full length human tau protein 2N4R …; assay: SPR, scAb captured, tau analyte
Protocol: as §2, §3, §4
Target sequence in this assay (P10636 other isoform, or with tags, fused parts or gaps limits assumed): as above

[7] = molecular target: T2, full length human tau protein 2N4R …; assay: sandwich ELISA, S1D12 mAb capture, scAb detection
Protocol: Full length tau (hT40), at 1 μg/ml starting concentration was added to designated wells and double diluted across rest of the plates and left to incubate at R/T for 1 h. A series of detection scAbs with varying epitope recognition properties were added at 10 μg/ml to designated wells (FIG. 22). For colourimetric detection HRP conjugated anti-HuCk secondary antibody was used and the resulting immunoreaction was developed and absorbance at 450 nm measured as described previously. Cut-off point for a positive binding event was an absorbance value of 0.3 following background subtraction. In order to enhance the assay sensitivity, a chemiluminescent detection method was adopted where 50 μL SuperSignal ELISA Femto Substrate (Thermo Scientific) was added to each well following incubation with anti-HuCK HRP antibody and subsequent washing. The luminescence was read using Clariostar Plus microplate reader. A further modification to this protocol was done where various detection scAbs were directly conjugated with HRP and detected using chemiluminescent protocol as before.
Target sequence in this assay (P10636 other isoform, or with tags, fused parts or gaps limits assumed): as above

tau fragment 1-49 = molecular target: T3, tau fragment 1-49 (human); assay: direct ELISA
T3 construct: also called Tau 1-49
T3 peptide: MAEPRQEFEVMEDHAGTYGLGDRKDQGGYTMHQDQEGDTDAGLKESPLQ
Protocol: as §1

tau fragment 1-155 = tau fragment 1-155 (human, UniProt P10636 1-472); assay: direct ELISA
Protocol: as §1

[8] = molecular target: T2, full length human tau protein 2N4R …; assay: hT40 ELISA; remark: listed apart in the source
Target sequence in this assay (P10636 other isoform, or with tags, fused parts or gaps limits assumed): as the sequence (P10636 other isoform, or with tags, fused parts or gaps limits assumed) above

aggregated dGAE [9] = molecular target: T4, aggregated dGAE (human, UniProt P10636 614-708, limits assumed); assay: ELISA, direct immobilisation, SDS + Triton treated dGAE aggregates
T4 construct: dGAE aggregated in vitro with DTT, 700 rpm, 37 C, 24 h; also called dGAE aggregates; dGAE agg

aggregated dGAE [10] = molecular target: T4, aggregated dGAE; assay: sandwich ELISA, S1D12 mAb capture, SDS + Triton treated dGAE aggregates
Protocol: For aggregation, 1000 μL 100 μM dGAE+10 μL 10 mM DTT was added to a ‘LoBind’ microfuge tubes and agitated at 700 RPM/37° C. for 24 hours. Resulting sample centrifuged at 17,000×g/4° C. for 60 min and supernatant discarded to remove left over monomer. Pellet resuspended in half the original volume for future experiments and hereafter referred to as ‘aggregates’. 1 μl of aggregates was added to 1 ml of PBS and SDS was added to a final concentration of 1% (w/v). This was left to incubate on lab bench for 1 h with gentle agitation every 15 minutes. In order to neutralize the SDS effect on ELISA, Triton X-100 added to a final concentration of 3% (v/v) and mixed gently by pipetting to prevent any bubble formation. […] Similarly aggregates treated with only SDS or Triton X-100, untreated aggregates, dGAE monomers treated with only SDS or SDS+Titon X-100 were also added to designated wells as controls. All samples were then double diluted across the plate in final volumes of 100 μl. The final column was left with no protein to act as a blank.

[11] = molecular target: T2, full length human tau protein 2N4R …; assay: direct ELISA
Protocol: as §1

dGA (tau 297-390) = dGA (tau 297-390) (human, UniProt P10636 614-707); assay: direct ELISA
Protocol: as §1

dGAE (tau 297-391) = molecular target: T5, dGAE (tau 297-391) (human, UniProt P10636 614-708); assay: SPR, scAb captured, tau analyte
T5 construct: monomer; also called dGAE95
Protocol: as §2, §3, §4

T5 sequence (P10636 614-708 limits assumed): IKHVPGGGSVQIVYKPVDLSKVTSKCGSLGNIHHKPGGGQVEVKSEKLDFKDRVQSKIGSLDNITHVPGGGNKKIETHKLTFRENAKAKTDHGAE
T4 sequence (P10636 614-708 limits assumed): as above
dGA (tau 297-390), sequence (P10636 614-707 limits assumed): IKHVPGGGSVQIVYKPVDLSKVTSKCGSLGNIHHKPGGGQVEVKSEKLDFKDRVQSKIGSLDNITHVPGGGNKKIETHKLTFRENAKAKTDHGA

| Binder | EC50 (read off the curve) [1] [µg/mL] | Kd [6] [nM] | koff [6] [s⁻¹] | kon [6] [M⁻¹ s⁻¹] | binding result (tau fragment 1-49) | other results |
| --- | --- | --- | --- | --- | --- | --- |
| B1 | ~2 | – | – | – | – | – |
| B2 | ~2 | – | – | – | – | EC50 (read off the curve) [2]: ~6 µg/mL; EC50 (read off the curve) [3]: ~6 µg/mL |
| B3 | ~0.4 | 3.16 | 0.00085 | 271000 | – | Kd [4]: 3.3 nM; Kd [5]: 3.16 nM; EC50 (read off the curve) [2]: ~1 µg/mL; EC50 (read off the curve) [3]: ~1 µg/mL; LoD chemiluminescence detection [7]: 0.37 ng/mL; LoD colourimetric detection [7]: 20 ng/mL |
| B4 | – | 3.6 | 0.00987 | 2.76e+06 | binds | – |
| B5 | – | 19.1 | 0.0104 | 544000 | binds | – |
| B6 | – | 8.9 | 0.0597 | 6.67e+06 | binds | – |
| B7 | – | 69 | 0.0143 | 207000 | – | EC50 (read off the curve) (tau fragment 1-155): ~0.8 µg/mL |
| B8 | – | 140 | 0.0153 | 109000 | – | EC50 (read off the curve) (tau fragment 1-155): ~1 µg/mL |
| B9 | – | – | – | – | – | EC50 (read off the curve) [8]: ~0.02 µg/mL; LoD (aggregated dGAE [9]): 16 ng/mL; LoD (aggregated dGAE [10]): 2 ng/mL |
| B10 | – | – | – | – | – | binding result [11]: no binding (tested: 25 ug/ml); binding result (dGA (tau 297-390)): no binding (tested: 25 ug/ml); Kd (dGAE (tau 297-391)): 6.3 nM; koff (dGAE (tau 297-391)): 0.0014 s⁻¹; kon (dGAE (tau 297-391)): 154000 M⁻¹ s⁻¹ |
